Test results published in the RNAGym collection of RNA variant scans (doi:10.1073/pnas.2313332121).

B1: TPR t1 (parent)
chain: GACCAAUCUGCCCUCAGAGCUCGAGAACAUCUUCGGAUGCAGAGGAGGCAGGCUUCGGUGGCGCGAUAGCGCCAACGUCCUCAACCUCCAAUGCAUCCCACCACAUGAUGAUGCCUGAAGAGCCUUGGUUUUUUG

Variants of: B1
Assay: polymerase ribozyme fitness, log enrichment relative to wild type (log ratio); higher = more active; in vitro selection for triplet polymerase activity
In short: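 A single round of triplicate in vitro selection, including frozen incubation at −7 °C, was applied to PCR-built, transcribed mutant libraries of each subunit of a heterodimeric triplet polymerase ribozyme. Illumina sequencing of input and output libraries retained genotypes with ≥10 input reads and ≥1 read per output. Fitness is the base-2 logarithm of genotype enrichment divided by wild-type enrichment, from inverse-variance-weighted replicate averages.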
In the case of C8G C20G C40G U96C U112A, the “polymerase ribozyme fitness (log ratio)” value is reported as -6.13.
In the case of C8G G63A C73U U78C C123G, the “polymerase ribozyme fitness (log ratio)” value is reported as 0.795.
With C8G C31A A50C G113U the “polymerase ribozyme fitness (log ratio)” value was -5.53.
In the case of C8A G135A, the “polymerase ribozyme fitness (log ratio)” value is reported as -0.0375.
In the case of C8G A118U, the “polymerase ribozyme fitness (log ratio)” value is reported as 1.5.
In the case of C8G A74U, the “polymerase ribozyme fitness (log ratio)” value is reported as 0.0385.
With C8A G93C the “polymerase ribozyme fitness (log ratio)” value was 0.003.
For C8G A46C U81A C88U G113A, the “polymerase ribozyme fitness (log ratio)” value was -1.64.
For C8G C11A G51A G71U U106G G113U U125G, the “polymerase ribozyme fitness (log ratio)” value was -6.93.
With C8G C49A U96G the “polymerase ribozyme fitness (log ratio)” value was 0.183.
In the case of C8G G44C C70A A84C C115U, the “polymerase ribozyme fitness (log ratio)” value is reported as -5.29.
With C8G G19U U125A the “polymerase ribozyme fitness (log ratio)” value was -2.65.
For C8U G44U C99U, the “polymerase ribozyme fitness (log ratio)” value was -2.6.
With C8A C22G G113U C114G the “polymerase ribozyme fitness (log ratio)” value was -3.52.
With C8G A18U A111G G128A U132C the “polymerase ribozyme fitness (log ratio)” value was -2.59.
For C8A U59G C114U, the “polymerase ribozyme fitness (log ratio)” value was -0.559.
In the case of C8A U78C, the “polymerase ribozyme fitness (log ratio)” value is reported as 0.0167.
With C8G C13A G52C U92A the “polymerase ribozyme fitness (log ratio)” value was -3.15.
For C8U G42U A50U, the “polymerase ribozyme fitness (log ratio)” value was -3.49.
With C8A C89U the “polymerase ribozyme fitness (log ratio)” value was 0.136.
For C8G G57A U81A G120A, the “polymerase ribozyme fitness (log ratio)” value was 0.685.
In the case of C8A C64U A121G, the “polymerase ribozyme fitness (log ratio)” value is reported as 1.81.
For C8G C12G C73U A83G G113C, the “polymerase ribozyme fitness (log ratio)” value was -2.3.
With C8A C49U the “polymerase ribozyme fitness (log ratio)” value was 0.0763.
In the case of C8G G63U, the “polymerase ribozyme fitness (log ratio)” value is reported as -0.674.
With C8A U112A G128U the “polymerase ribozyme fitness (log ratio)” value was 0.095.
For C8A C11U G17C, the “polymerase ribozyme fitness (log ratio)” value was -2.13.
For C8U C72A C98U U116A G128C, the “polymerase ribozyme fitness (log ratio)” value was -6.24.
With C8G G93U the “polymerase ribozyme fitness (log ratio)” value was -0.15.
In the case of C8U C12G U14G G60A U78G G113A, the “polymerase ribozyme fitness (log ratio)” value is reported as -3.01.
In the case of C8G C20G G63A C124G, the “polymerase ribozyme fitness (log ratio)” value is reported as -4.75.
With C8G U38C A50U C115A the “polymerase ribozyme fitness (log ratio)” value was 0.783.
For C8G C13U C40G C124G, the “polymerase ribozyme fitness (log ratio)” value was 0.821.
In the case of C8G G17U G48A G57U U112G C114U, the “polymerase ribozyme fitness (log ratio)” value is reported as -5.14.
In the case of C8U G58U A111G U126C, the “polymerase ribozyme fitness (log ratio)” value is reported as -1.57.
For C8A C72A U81G G120U, the “polymerase ribozyme fitness (log ratio)” value was -0.73.
For C8G G44C C49A, the “polymerase ribozyme fitness (log ratio)” value was 0.0557.
For C8G G48U G60U C85U U92A, the “polymerase ribozyme fitness (log ratio)” value was -3.06.
For C8U C13U A37C C70U A119G, the “polymerase ribozyme fitness (log ratio)” value was -0.292.
For C8A A37C C101G, the “polymerase ribozyme fitness (log ratio)” value was -1.22.
In the case of C8A G61A, the “polymerase ribozyme fitness (log ratio)” value is reported as -0.475.
With C8G A41C G63U C64U G113A A118G the “polymerase ribozyme fitness (log ratio)” value was -7.5.
With C8A A41U C49G G61A U81C A100U the “polymerase ribozyme fitness (log ratio)” value was -8.29.
In the case of C8A A29G C115U U126G, the “polymerase ribozyme fitness (log ratio)” value is reported as -2.36.
With C8G A50C C79U A90U the “polymerase ribozyme fitness (log ratio)” value was -1.96.
For C8G C12U C97G, the “polymerase ribozyme fitness (log ratio)” value was -3.16.
In the case of C8G C72A C102A, the “polymerase ribozyme fitness (log ratio)” value is reported as -1.22.
With C8G G10C U55G A91C the “polymerase ribozyme fitness (log ratio)” value was -1.21.
For C8G C53A, the “polymerase ribozyme fitness (log ratio)” value was 0.628.
In the case of C8G C15U C49A G93C, the “polymerase ribozyme fitness (log ratio)” value is reported as -1.27.
With C8G A68G the “polymerase ribozyme fitness (log ratio)” value was -2.09.
With C8A U21C C62U A83G G117A the “polymerase ribozyme fitness (log ratio)” value was -1.21.
For C8A C62U A74C C89A C104A U112C, the “polymerase ribozyme fitness (log ratio)” value was -3.01.
With C8U C73A C123A the “polymerase ribozyme fitness (log ratio)” value was 2.02.
In the case of C8A C20A U126A, the “polymerase ribozyme fitness (log ratio)” value is reported as -3.84.
In the case of C8G G47U C123U, the “polymerase ribozyme fitness (log ratio)” value is reported as 0.786.
In the case of C8A A18U G45C U109A, the “polymerase ribozyme fitness (log ratio)” value is reported as -5.8.
For C8A G36U G42A C62U, the “polymerase ribozyme fitness (log ratio)” value was -2.62.
With C8G G65C C114U C123A the “polymerase ribozyme fitness (log ratio)” value was -7.69.
In the case of C8A A46U A74U A100U C102U C115A, the “polymerase ribozyme fitness (log ratio)” value is reported as -2.37.
For C8A G48U U59G A105C U112C G120A, the “polymerase ribozyme fitness (log ratio)” value was -1.08.
In the case of C8U C99U, the “polymerase ribozyme fitness (log ratio)” value is reported as -2.32.
In the case of C8U C28G U109A, the “polymerase ribozyme fitness (log ratio)” value is reported as -4.64.
With C8G U78C C85U G113U U132A the “polymerase ribozyme fitness (log ratio)” value was -2.41.
In the case of C8U C85U C124G, the “polymerase ribozyme fitness (log ratio)” value is reported as 2.05.
In the case of C8A G47C U133G, the “polymerase ribozyme fitness (log ratio)” value is reported as -1.25.
In the case of C8G C12G C56U U106G U112G A118C U133G, the “polymerase ribozyme fitness (log ratio)” value is reported as -1.11.
With C8G A91G C115U the “polymerase ribozyme fitness (log ratio)” value was -0.682.
For C8U A50U, the “polymerase ribozyme fitness (log ratio)” value was -0.00813.
In the case of C8G A18C A37C G120C, the “polymerase ribozyme fitness (log ratio)” value is reported as 0.00671.
In the case of C8G G110C, the “polymerase ribozyme fitness (log ratio)” value is reported as -2.74.
With C8G A43U C88G G110U G120U the “polymerase ribozyme fitness (log ratio)” value was -4.09.
For C8U C97U U116C, the “polymerase ribozyme fitness (log ratio)” value was -0.891.
With C8U C94A the “polymerase ribozyme fitness (log ratio)” value was -0.617.
In the case of C8G G60A C104U, the “polymerase ribozyme fitness (log ratio)” value is reported as -0.296.
For C8G A16G C56G C72A A100C, the “polymerase ribozyme fitness (log ratio)” value was -1.46.
In the case of C8G C88A A111C, the “polymerase ribozyme fitness (log ratio)” value is reported as 0.461.
For C8U G19C C56A C115A, the “polymerase ribozyme fitness (log ratio)” value was -2.03.
For C8A U78C G113C, the “polymerase ribozyme fitness (log ratio)” value was -0.875.
In the case of C8U C22G U96A, the “polymerase ribozyme fitness (log ratio)” value is reported as -2.59.
For C8U A18U A50U G69C C82A C124G, the “polymerase ribozyme fitness (log ratio)” value was -3.
For C8A G60A, the “polymerase ribozyme fitness (log ratio)” value was -0.104.
In the case of C8G A27U A29U G69U C101A C114U, the “polymerase ribozyme fitness (log ratio)” value is reported as -5.18.
